According to patent US20260109962:

Biological target: T1, 33-mer peptide from alpha-gliadin
T1 chain: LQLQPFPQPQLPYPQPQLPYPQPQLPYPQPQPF

B1: Recombinant E40 (histidine-tagged endopeptidase 40 of Actinoallomurus A8, mature form, produced in S. lividans TK24/pIJ86/e40) (protein)
chain: AAPSGLSPANLQSAYKLPSSTAGSGQTVAIVDAYDAPTAEADLNVYRSQFGLGACTTANGCFKKVDQNGGTSYPRKDGGWAQEISLDLDMVSAVCPNCKIVLVEAKTNSFANLGTAENTAASLANVISNSYGGSDASDASYGSYYNHPGKAITVSSGDAGYGVEYPASSHYVTAVGGTSLRTASTSRGWSETAWSGAGSGCSAYNTALSGQSGLTGCSRRAVADVSAVADPATGVAVYDSTAYQGQSGWMVFGGTSVAAPIIGGVYGLAANAASIDNNYPYAHTSSLFDVTSGSNGTCTTTKWCTAGTGWDGPTGLGTPNGTGAFGHHHHHH
For B1, the “33-mer gliadin peptide degradation monitored by LC-MS/MS (1:48 enzyme vs substrate molar ratio, pH 5, 37 C): time to complete disappearance of the peptide” value was “the native 33-mer peptide signal completely disappeared after only 15 minutes”, the “33-mer gliadin peptide degradation monitored by LC-MS/MS (1:96 molar ratio): time to complete degradation” value was “in that case complete 33-mer degradation took 30 minutes (not shown)” and the “cleavage sites from MS/MS spectra of the digestion products” value was “E40 cleaving site occurs between F-P and Q-L residues of gliadin, leading to short peptides lacking of T-cell stimulatory capacity”.
